Biological target: RIPK3 (UniProt Q9Y572)
Assay: anti-Flag co-IP, Myc blot
Conditions: reference: wild-type Myc-CSNK1G2; sites S211,T215

binding against the reference: lost
Substance: CSNK1G2 (from UniProt P78368) S211A/T215A
